Data on four molecules can be found in US20100098704A1 (CELLDEX THERAPEUTICS, published 2010).

Assay [1] has as its target T1, human Dendritic and Epithelial Cell 205 receptor (DEC-205) expressed on cells (human, UniProt O60449 28-1722). As to the kind of experiment: flow cytometry, human monocyte-derived dendritic cells, saturating antibody, PE goat anti-human IgG Fc [D].
In assay [2] the target is T2, soluble recombinant human DEC-205 fusion protein (DEC-205 extracellular domain comprising all ten … (human)).
T2 chain: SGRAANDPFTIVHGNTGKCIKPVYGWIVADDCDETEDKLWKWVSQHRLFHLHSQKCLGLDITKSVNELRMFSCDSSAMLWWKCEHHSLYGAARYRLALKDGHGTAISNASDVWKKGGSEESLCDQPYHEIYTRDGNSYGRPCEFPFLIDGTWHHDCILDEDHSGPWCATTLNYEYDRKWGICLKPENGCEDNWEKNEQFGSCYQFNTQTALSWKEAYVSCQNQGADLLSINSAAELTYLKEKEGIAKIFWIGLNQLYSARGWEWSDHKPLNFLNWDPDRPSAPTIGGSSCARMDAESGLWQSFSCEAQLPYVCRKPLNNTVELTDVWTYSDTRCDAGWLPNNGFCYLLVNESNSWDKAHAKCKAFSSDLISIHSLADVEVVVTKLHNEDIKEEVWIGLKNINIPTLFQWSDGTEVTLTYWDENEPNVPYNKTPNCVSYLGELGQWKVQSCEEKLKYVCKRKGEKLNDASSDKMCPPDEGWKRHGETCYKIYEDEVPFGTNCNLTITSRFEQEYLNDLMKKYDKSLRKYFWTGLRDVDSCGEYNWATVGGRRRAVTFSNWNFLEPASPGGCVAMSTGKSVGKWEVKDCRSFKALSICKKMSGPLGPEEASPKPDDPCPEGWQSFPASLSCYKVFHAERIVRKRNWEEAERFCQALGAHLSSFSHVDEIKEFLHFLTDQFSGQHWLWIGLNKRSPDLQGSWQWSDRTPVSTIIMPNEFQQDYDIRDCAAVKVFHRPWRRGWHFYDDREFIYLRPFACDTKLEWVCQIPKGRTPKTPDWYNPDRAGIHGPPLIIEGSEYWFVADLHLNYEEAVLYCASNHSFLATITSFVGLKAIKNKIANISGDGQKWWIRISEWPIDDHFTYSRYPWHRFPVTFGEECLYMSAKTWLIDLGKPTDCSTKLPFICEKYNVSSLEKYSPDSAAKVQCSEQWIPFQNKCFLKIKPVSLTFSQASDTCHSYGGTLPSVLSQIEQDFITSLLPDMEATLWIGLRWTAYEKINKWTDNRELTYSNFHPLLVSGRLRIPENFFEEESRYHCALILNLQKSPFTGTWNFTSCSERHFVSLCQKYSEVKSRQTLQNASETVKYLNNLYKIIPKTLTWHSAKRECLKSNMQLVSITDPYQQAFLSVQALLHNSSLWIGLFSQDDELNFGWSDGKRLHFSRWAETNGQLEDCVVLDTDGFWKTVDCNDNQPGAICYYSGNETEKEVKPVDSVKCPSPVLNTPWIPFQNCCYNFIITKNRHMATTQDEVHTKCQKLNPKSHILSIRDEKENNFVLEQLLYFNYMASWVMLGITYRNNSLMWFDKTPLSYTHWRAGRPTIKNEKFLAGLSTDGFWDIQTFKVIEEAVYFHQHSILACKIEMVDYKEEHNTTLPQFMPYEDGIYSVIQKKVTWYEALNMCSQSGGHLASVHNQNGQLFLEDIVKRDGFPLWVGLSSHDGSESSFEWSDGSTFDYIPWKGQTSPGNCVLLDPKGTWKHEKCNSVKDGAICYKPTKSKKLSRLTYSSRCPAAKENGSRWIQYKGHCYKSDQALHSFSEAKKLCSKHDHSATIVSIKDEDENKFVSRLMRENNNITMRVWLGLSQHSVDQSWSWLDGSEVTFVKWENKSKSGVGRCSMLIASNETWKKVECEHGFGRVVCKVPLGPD
The experiment in a line: SPR (Biacore 2000), DEC-205 fusion protein amine-coupled to CM5 chip, antibody flowed, 1:1 Langmuir fit, mean of two series. On the technique in general: Surface plasmon resonance follows binding to a sensor surface in real time, without labels.

Assay [3] addresses T1, human Dendritic and Epithelial Cell 205 …. The experiment in a line: flow cytometry, human monocyte-derived dendritic cells, saturating antibody, PE goat anti-human IgG Fc [F].
The target is the same in assay [4]. The experiment in a line: flow cytometry, CHO-S cells expressing human DEC-205 against control CHO-S cells, saturating antibody, PE goat anti-human IgG Fc [A]. Background: A flow cytometer gives signals particle by particle.
Assay [5] shares this target. As to the kind of experiment: flow cytometry, human monocyte-derived dendritic cells, saturating antibody, PE goat anti-human IgG Fc [C].

B1: human anti-DEC-205 monoclonal antibody 5A8-1F1 (antibody, V domains shown)
VH: QVQLVESGGGVVQPGRSLRLSCAASGFTFSTYGMHWVRQAPGKGLEWVAIIWYDGGNKYYADSVKGRFTISRDNSKNTLYLQMNSLRAEDTAVYYCARDFYWYFDLWGRGTLVTVSS
VL: EIVLTQSPATLSLSPGERATLSCRASQSVSSYLAWYQQKPGQAPRLLIYDASNRATGIPARFSGSGSGTDFTLTISSLEPEDFAVYYCQQRRTFGQGTKVEIK
Broadly, the Kd is the equilibrium constant for the complex coming apart. By koff is commonly meant the rate constant with which the complex falls apart. In general, kon refers to the rate constant with which the complex forms. On to B1, for which the binding result in assay [1] is on record as “binds”. In assay [2], the Ka was 2.1e+09 M⁻¹, the dissociation constant Kd stood at 1.5 nM, the koff worked out at 0.0002 s⁻¹ and the kon came out at 360000 M⁻¹ s⁻¹.

B2: human anti-DEC-205 monoclonal antibody 3C7-3A3 (antibody, V domains shown)
VH: QVQLVESGGGVVQPGRSLRLSCAASGFTFSSYNMHWVRQAPGKGLEWVAFIWYDGSNKYYGDSVKGRFTISRDNSKNTLYLQMNSLRAEDTAVYYCAREELGIGWYFDLWGRGTLVTVSS
VL: EIVLTQSPATLSLSPGERATLSCRASQSVSSYLAWYQQKPGQAPRLLIYDASNRATGIPARFSGSGSGTDFTLTISSLEPEDFAVYYCQQRRTFGQGTKVEIK
On to B2, for which the binding result in assay [3] is on record as “binds”. In addition, in assay [2], the Ka stood at 5.2e+08 M⁻¹, the Kd was 5.6 nM, the dissociation rate constant (koff) is 0.00076 s⁻¹ and the on-rate constant (kon) worked out at 170000 M⁻¹ s⁻¹.

B3: human anti-DEC-205 monoclonal antibody 3D6-2F4 (antibody, V domains shown)
VH: QVQLVESGGGVVQPGRSLRLSCAASGFIFSIYGMHWVRQAPGKGLEWVAVIWYDGSNKYYADSVKGRFTISRDNSKNTLYLQMNSLRAEDTAVYYCARAPHFDYWGQGTLVTVSS
VL: DIQMTQSPSSLSASVGDRVTITCRASQGISSWLAWYQQKPEKAPKSLIYAASSLQSGVPSRFSGSGSGTDFTLTISSLQPEDFATYYCQQYNSYPYTFGQGTKLEIK
notes: also called mAb #5
On to B3, for which, in assay [2], the Ka worked out at 1.5e+10 M⁻¹, the Kd amounted to 0.08 nM, the koff is 0.00012 s⁻¹ and the on-rate constant (kon) was 1.8e+06 M⁻¹ s⁻¹. The binding result in assay [4] is “binds”.

B4: human anti-DEC-205 monoclonal antibody 3G9-2D2 (antibody, V domains shown)
VH: QVQLVESGGGVVQPGRSLRLSCAASGFTFSNYGMYWVRQAPGKGLEWVAVIWYDGSNKYYADSVKGRFTISRDNSKNTLYLQMNSLRAEDTAVYYCARDLWGWYFDYWGQGTLVTVSS
VL: EIVLTQSPATLSLSPGERATLSCRASQSVSSYLAWYQQKPGQAPRLLIYDASNRATGIPARFSGSGSGTDFTLTISSLEPEDFAVYYCQQRRNWPLTFGGGTKVEIK
B4: in assay [5], the binding result is reported as “binds”. In assay [2], the Ka turned out to be 4.7e+09 M⁻¹, the dissociation constant (Kd) was determined as 0.24 nM, the koff is 0.00019 s⁻¹ and the on-rate constant (kon) was found to be 900000 M⁻¹ s⁻¹.
